Test results from publication PMC7865483 (International Journal of Molecular Sciences, 2021).

Target: T1, Pank1 (pantothenate kinase 1), endogenous in A549 cells (human (endogenous in A549), UniProt Q8TE04 1-598)
T1 construct: pantothenate kinase 1, endogenous in the human lung cancer cell line A549; source: endogenous, A549 cells (fixed cells for PLA)
Experiment: proximity ligation; in situ PLA (Duolink) on fixed A549 cells, endogenous proteins; cells serum-starved for 24 h, or serum-starved and then treated with 500 μM H2O2
Conditions: partners not purified

T1 sequence (Q8TE04 whole entry): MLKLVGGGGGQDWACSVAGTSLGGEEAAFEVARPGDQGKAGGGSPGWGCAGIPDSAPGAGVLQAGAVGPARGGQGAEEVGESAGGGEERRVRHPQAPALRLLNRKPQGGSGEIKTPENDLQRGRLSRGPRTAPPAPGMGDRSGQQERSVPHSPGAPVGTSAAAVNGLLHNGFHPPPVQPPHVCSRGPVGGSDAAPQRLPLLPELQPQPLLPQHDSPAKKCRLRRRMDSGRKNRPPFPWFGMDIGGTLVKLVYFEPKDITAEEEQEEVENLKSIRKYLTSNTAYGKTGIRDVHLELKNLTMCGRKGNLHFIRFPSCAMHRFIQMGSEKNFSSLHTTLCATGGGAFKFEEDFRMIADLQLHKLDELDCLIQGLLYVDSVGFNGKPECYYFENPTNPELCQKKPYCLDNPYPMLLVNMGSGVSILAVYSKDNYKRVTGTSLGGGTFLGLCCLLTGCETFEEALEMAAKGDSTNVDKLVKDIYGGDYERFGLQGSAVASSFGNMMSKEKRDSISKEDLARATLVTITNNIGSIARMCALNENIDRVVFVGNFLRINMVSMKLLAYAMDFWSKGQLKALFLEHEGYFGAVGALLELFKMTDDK

Row | fold increase of the PLA signal after 24 h serum starvation, against control cells [fold] | fold increase of the PLA signal after stress treatments, against control conditions [fold] | Binder
1 | ~10 | ~10 | CoA synthase (CoAsy) (enzyme, human (endogenous in HEK293 and A549), UniProt Q13057 1-564, looked up) MAVFRSGLLVLTTPLASLAPRLASILTSAARLVNHTLYVHLQPGMSLEGPAQPQSSPVQATFEVLDFITHLYAGADVHRHLDVRILLTNIRTKSTFLPPLPTSVQNLAHPPEVVLTDFQTLDGSQYNPVKQQLVRYATSCYSCCPRLASVLLYSDYGIGEVPVEPLDVPLPSTIRPASPVAGSPKQPVRGYYRGAVGGTFDRLHNAHKVLLSVACILAQEQLVVGVADKDLLKSKLLPELLQPYTERVEHLSEFLVDIKPSLTFDVIPLLDPYGPAGSDPSLEFLVVSEETYRGGMAINRFRLENDLEELALYQIQLLKDLRHTENEEDKVSSSSFRQRMLGNLLRPPYERPELPTCLYVIGLTGISGSGKSSIAQRLKGLGAFVIDSDHLGHRAYAPGGPAYQPVVEAFGTDILHKDGIINRKVLGSRVFGNKKQLKILTDIMWPIIAKLAREEMDRAVAEGKRVCVIDAAVLLEAGWQNLVHEVWTAVIPETEAVRRIVERDGLSEAAAQSRLQSQMSGQQLVEQSHVVLSTLWEPHITQRQVEKAWALLQKRIPKTHQALD
2 | – | ~10 | 4′-phosphopantothenoylcysteine synthetase (PPCS) (enzyme) not shown
